# B1: LINE1-full (parent)
# chain: UACGUAGGUGGUUUUCCCCUGAUAGUGCUAAGGGGGCCUGGAAGUUUGGACUGGGCAGAGCUCAACACAGCGUGGCAAAGUGGCUGUGGCUAGACUGCCUCUCUGGAUUCCUCGUCACUCAGCAGGGCAUCUCUGAGAGAAAUGCC
# Variants of: B1
# Assay: self-cleavage, relative activity (ratio to wild type); higher = more cleavage; in vitro, sequencing; the parent is a self-cleaving ribozyme
row,Variant,self-cleavage
1,UACGUAGUUGGUUUUCCCCUGAUAGUGCUAAGGGGGCCUGGAAGUUUGGACUGGGCAGUGCUCAACACAGCGUGGCAAAGUGGCUGUGGCUAGACUGCCUCUCUGGAUUCCUCGUCACUCAGCAGGGCAUCUCUGAGAGAAAUGCC [G8U A59U],0.63
2,UACGUAGGUGGUUUUCCCCUGAUAGUGCUAAGGGGGCGUGGAGGUUUGGACUGGGCAGAGCUCAACACAGCGUGGCAAAGUGGCUGUGGCUAGACUGCCUCUCUGGAUUCCUCGUCACUCAGCAGGGCAUCUCUGAGAGAAAUGCC [C38G A43G],1.6
3,UACGUAGGUGGUUUUCCCCUGAUAGUGCUAAGGGGGCCUGGAUGUUUGGACUGGGCAGAGCUCAACACAGCGUGGCAAAGUGGCUGUGGCUAGACUGCCUCUCUGGAUUCCUCGUCACUCAGCAGGGCUUCUCUGAGAGAAAUGCC [A43U A129U],1.22
4,UACGUAGGUGGUUUUCCCCUGAUAGAGCUAAGGGGGCCUGGAAGUUUGGCCUGGGCAGAGCUCAACACAGCGUGGCAAAGUGGCUGUGGCUAGACUGCCUCUCUGGAUUCCUCGUCACUCAGCAGGGCAUCUCUGAGAGAAAUGCC [U26A A50C],0.78
5,UACGUAGGUGGUUUCCCCCUGAUAGUGCUAAGGGGGCCUGGAAGUUUGGACUGGGCAGAGCUCAACACAGCGUGGCAAAGUGGCUGUGGCUAGACUGCCUCUCCGGAUUCCUCGUCACUCAGCAGGGCAUCUCUGAGAGAAAUGCC [U15C U104C],1.86
6,UACGUAGGUGGAUUUCCCCUGAUAGUGCUAAGGGGGCCUGGAAGUUUGGACUGGGCAGAGCUCAACACAGCGUGGCAAAGUGGCUGUGGCUAGACUGUCUCUCUGGAUUCCUCGUCACUCAGCAGGGCAUCUCUGAGAGAAAUGCC [U12A C98U],0.41
7,UGCGUAGGUGGUUUUCCCCUGAUAGUGCUAAGGGGGCCUGGAAGUUUGGACUGGGCAGAGCUCAACACAGCGUGGCAAAGUGGCUGUGGCUAGACUGCCUCUCUGGAUCCCUCGUCACUCAGCAGGGCAUCUCUGAGAGAAAUGCC [A2G U109C],1.39
8,UACGUAGGUGGUUUUCCCCUGAUAGUGCAAAGGGGGCCUGGAAGUUUGGACUGGGCAGAGCUCAACACAGCGUGGCUAAGUGGCUGUGGCUAGACUGCCUCUCUGGAUUCCUCGUCACUCAGCAGGGCAUCUCUGAGAGAAAUGCC [U29A A77U],1.79
9,UACGUAGGUGGUUUUCCCCUGAUAGUGCUAAGGGGGCCUGGAAGUUUGGACUGGGCAGAGCUCAACACAGCGUGACAAAGUGGCUGUGGCUAGACUGCCUCUCUGGAUUCCUCGUCACUCAGCAGGGCAUCUCUGAGAGAGAUGCC [G75A A141G],1.16
10,UACGUAGGUGGUUUUCCCCUGAUAGUGCUAAGGGGGCCUGGGAGUCUGGACUGGGCAGAGCUCAACACAGCGUGGCAAAGUGGCUGUGGCUAGACUGCCUCUCUGGAUUCCUCGUCACUCAGCAGGGCAUCUCUGAGAGAAAUGCC [A42G U46C],1.49
11,UACGUAGGUGGUUUUCCCCUGAUAGUGCUGAGGGGGCCUGGAAGUUUGGACUGGGCAGAGCUCAACACAGCGUGGCAAAGUGGCUGUGGCUAGACUGCCUCUCAGGAUUCCUCGUCACUCAGCAGGGCAUCUCUGAGAGAAAUGCC [A30G U104A],0.61
12,UACGUAGGUGGUUUUCCCCUGAUAGUGCUAAGGGGGCCUGGAAGUUUGGACUGGGCAGAGCUCAACACAGCGUGGCAAAGUGGCUGUGGCUAGACUGCCUCUCUGGACUCCUCGUCACUCAGCAGUGCAUCUCUGAGAGAAAUGCC [U108C G126U],2.03
13,UACGUAGGUGGUUUUCCCCUGAUAGUGCUAAGGGGGCCUGGAAGUUUGGACUGGGCAGAAGUCAACACAGCGUGGCAAAGUGGCUGUGGCUAGACUGCCUCUCUGGAUUCCUCGUCACUCAGCAGGGCAUCUCUGAGAGAAAUGCC [G60A C61G],0.04
14,UACGUAGGUGGUUUUCCCCUGAUAGUGCUAAGGGGGCCUUGAAGUUUGGACUGGGCAGAGCUCAACACAGCGUGGCAAAGUGGCUGUGGCUAGACUGCCUCUCUGGACUCCUCGUCACUCAGCAGGGCAUCUCUGAGAGAAAUGCC [G40U U108C],1.59
15,UACGUAGGUGGUUUUCCCCUGAUAGUGCUAAGGCGGCCUGGAAGUUUGGACUGGGCAGAGCUCAACACAGCGUGGCAAAGUGGCUGUGGCUAGACUGCCUCUCUGGAUUCCUCGUCACUCAGCGGGGCAUCUCUGAGAGAAAUGCC [G34C A124G],2.03
16,UACGUAGGUGGUUUUCCCCUGAUAGUGCUAAGGGGGCCUGGAAGUUUGGCCUGGGCAGAGCUCAACACAGCGUGGCAAAGUGGCUGUGGCUAGACUGCCUCUCUGGAUUCCUCGUCACUUAGCAGGGCAUCUCUGAGAGAAAUGCC [A50C C120U],1.66
17,UACGUAGGUGGUUUUCCCCUGAUAGUGCUAAGGGGGCCUGGAAGUUUGGACUGGGCAGAGCUCAACUCAGCGUGGCAAUGUGGCUGUGGCUAGACUGCCUCUCUGGAUUCCUCGUCACUCAGCAGGGCAUCUCUGAGAGAAAUGCC [A67U A79U],0.21
18,UACGUAGGUGGUUCUCCCCUGAUAGUGCUAAGGGGGCCUGGAAGUUUGGACUGGGCAGAGCUCAACACAGCGUGGCAAAGUGGCUGUGGCUAGACUGCCUCUCUGGAUUCCUCGUCACUCGGCAGGGCAUCUCUGAGAGAAAUGCC [U14C A121G],1.3
19,UACGUAGGUGGUUUUCCCCUGAUAGGGCUAAGGGGGCCUGGAAGUUUGGACUGGACAGAGCUCAACACAGCGUGGCAAAGUGGCUGUGGCUAGACUGCCUCUCUGGAUUCCUCGUCACUCAGCAGGGCAUCUCUGAGAGAAAUGCC [U26G G55A],0.21
20,UACGUAGGUGGUUUUCCCCUGAUAGUGCUAAGGGGGCCUGGAAGUUAGGACUGGGCAGAGCUCAACACAGCGUGGCAAAGUGGCAGUGGCUAGACUGCCUCUCUGGAUUCCUCGUCACUCAGCAGGGCAUCUCUGAGAGAAAUGCC [U47A U85A],0.04

row,Variant,self-cleavage
1,UACGUAGGUGGUUUUCCCCUGAUAGUGCUAAGGGGGCCUGGAAGGUUGGACUGGGCAGAGCUCAACACAGCGUGGCAAAGUGGCUGUGGCUAGACUGCCUCUCUGGAUCCCUCGUCACUCAGCAGGGCAUCUCUGAGAGAAAUGCC [U45G U109C],0.66
2,UACGUAGGUGGUUUUCCCCUGAUAGUGCUAAGGGGGCCUGGAAGUGUGGACUGGGCAGAGCUCAACACAGCGUGGCAAAGUGGCUGUGGCUAGACUGCCUCUCUGGAUUCCUCGUCACUCAGCAGGGCAUCUCUGAGAGAAAUUCC [U46G G144U],0.95
3,UACGUAGGUGGUUUUCCCCUGAUAGUGCUAAGGGGGCCUGGAAGUUUGGACUGGGCAGAGCUCAACACAGCGUGGCAAAGUGGCUGUGCCUAGACUGCCUCUCUGGGUUCCUCGUCACUCAGCAGGGCAUCUCUGAGAGAAAUGCC [G89C A107G],0.11
4,UACGUAGGUGGUUUUCCACUGAUAGUGCUAAGGGGGCCUGGAAGUUUGGACUGGGCAGAGCUCAACACAGCGUGGCAAAGUGGCUGUGGCUAGACUGCCUCUCUGGAUUCCUCGUCACUCAGUAGGGCAUCUCUGAGAGAAAUGCC [C18A C123U],1.31
5,UACGUAGGUGGUUUUCCCCUGAUAGUGCUAAGGGGGCCUGGAAGCUUGGACUGGGCAGAGCUCAACACAGCGUGGCAAAGUGGCUGUGGCUAGACUGCCUCUCUGGAUUCCUCGUCACUCAGCAGGACAUCUCUGAGAGAAAUGCC [U45C G127A],0.55
6,UACGUAGGUGGUUUUCCCCUGAUAGUGCUAAGGGGGCCUGGAAGUUUGGACUGGGCAGAGCUCGACACAGCGUGGCAAAGUGGCUGUGGCUAGACUGCCUCUCUGGAUUCCUCGUCACCCAGCAGGGCAUCUCUGAGAGAAAUGCC [A64G U119C],0.32
7,UACGUAGGUGGUUUUCCCCUGAUAGUGCUAAGGGGGCCUGGAAGUUUGGACUGGGCAGAGCUCAACACAGCGUAGCAAAGUGGCUGUGGCUAGACUGCCUCUCUGGAUUCCUCGUCACUCAGCAGGGCACCUCUGAGAGAAAUGCC [G74A U130C],0.87
8,UACGUAGGUGGUUUUCCCCUGAUAGUGCUAAGGGGGCCUGGAAGUUUGGACUGGGCAGAGCACAACACAGCGUGGCAAAGGGGCUGUGGCUAGACUGCCUCUCUGGAUUCCUCGUCACUCAGCAGGGCAUCUCUGAGAGAAAUGCC [U62A U81G],0.02
9,UACGUAGGUGGUUUUCCCCUGAUAGUGCUAAGGGGGCCUGGAAGUUUGGACUGGGCAGAGCUCAACACAGCGUGGCGAAGUGGCUGUGGCUGGACUGCCUCUCUGGAUUCCUCGUCACUCAGCAGGGCAUCUCUGAGAGAAAUGCC [A77G A92G],0.2
10,UACGUAGGUGGUUUUCCCCUGAUAGUGCUAAGGGGGCCUGGAAGUUUGGACUGGGCAGAGCUCGACACAGCGUGGCAAAGUGGCUGUGGCUAGACUGCCUCUCUGGAUUCCUCGUCACUCUGCAGGGCAUCUCUGAGAGAAAUGCC [A64G A121U],0.22
11,UACGUAGGUGGUUUUCCCCUGAUAGUGCUAAGGGGGCCUGGAAGUUUGGACUGGGCAGAUCUCAUCACAGCGUGGCAAAGUGGCUGUGGCUAGACUGCCUCUCUGGAUUCCUCGUCACUCAGCAGGGCAUCUCUGAGAGAAAUGCC [G60U A65U],0.02
12,UACGUAGGUGGUUUUCCCCUGAUAGUGCUAAGGGGGCCUGGAAGUUUGGACUGGGCAGAGCUCAACACAGCGUGGCAAAGUGGCUGUGGCUAGACCGCCUCUCUGGAUUCCUCGUCACUCAGCAGGGCUUCUCUGAGAGAAAUGCC [U96C A129U],0.1
13,UACGUAGGUGGUUUUCCCUUGAUAGUGCUAAGGGGGCCUGGAAGUUUGGACUGGGCAGAGCUCAACACAGCGUGGCAGAGUGGCUGUGGCUAGACUGCCUCUCUGGAUUCCUCGUCACUCAGCAGGGCAUCUCUGAGAGAAAUGCC [C19U A78G],1.24
14,UACGUAGGUGGUUUUCCCCUGAUAGUGCUAAGGGGGCCUGGAAGUUUGGACUGGGCAGAGCUCAACACAGCGUGGCAAAGUGACUGUGGCUAGACUGCCUCUCUGGACUCCUCGUCACUCAGCAGGGCAUCUCUGAGAGAAAUGCC [G83A U108C],0.56
15,UACGUAGGUGGUUUUCCCCUGAUAGUGCUAAGGGGGCCUGGAAGUUUGGACUGGGCAGAGCUCAACACAGCGUGGCAAAGUGGCCGUGGCUAGACUGCCUCUCUGGAUUCCUCGUCACUCAGCAGGGCUUCUCUGAGAGAAAUGCC [U85C A129U],0.19
16,UACGUAGGUGGUUUUCCCCUGAUAGUGCUAAGGGGGCCUGGAAGUUUGGACUGGGCAGAGCUCAACACAGCGUGGCAAAGUGGCUGUGGCUAGACUGCCUCUCUGGAUUCCUCGUCACUCAGCAGGGUAUCUCUGAGAGAAACGCC [C128U U143C],1.26
17,UACGUAGGUGGUUUUCCCCUGAUAGUGCUAAGGGGGCCUGGAAGUUUGGACUGGGCAUAGCUCAACACAGUGUGGCAAAGUGGCUGUGGCUAGACUGCCUCUCUGGAUUCCUCGUCACUCAGCAGGGCAUCUCUGAGAGAAAUGCC [G58U C71U],0.04
18,UACGUAGGUGGUUUUCCCCUGAUAGUGCUAAGGGGGCCUGGAAGUUUGGACUGGGCAGGGCUCAACACAGCGUGGCAAAGUGGCUGUGGCUAGACUGCCUCUCUGGAUUCCUAGUCACUCAGCAGGGCAUCUCUGAGAGAAAUGCC [A59G C113A],0.07
19,UACGUAGGUGGUUUUCCCCUGAUAGUGCUAAGGGGACCUGGAAGUUUGGACUGGGCAGAGCUCAACACAGCGUGGCAAAGUGGCUGUGGCUAGACUGCCUCUCUGGAUUCCUCGUCACACAGCAGGGCAUCUCUGAGAGAAAUGCC [G36A U119A],1.36

# Source: the RNAGym collection of RNA variant scans (doi:10.7554/elife.90254)
